Results as given in PMC7300195 (2020).

Assays:
Test in all cases: BLI
[1] = target: NiV G trimer: NiV G head domain residues 172-602 coupled to an N-terminal foldon domain ( | Nipah virus (Malaysia), UniProt Q9IH62 172-602)
Stalk G = target: Stalk G
[2] = target: hexameric NiV G: two G ectodomain headgroups linked by a foldon trimerization domain via short glycine linkers (Nipah virus (Malaysia) | )
[3] = target: NiV G ferritin 24-mer nanoparticle: NiV G ectodomain residues 172-602 linked to the C-terminus of fe (Nipah virus (Malaysia), UniProt Q9IH62 172-602)
Mono G = target: Mono G

B1: m102.4 monoclonal antibody (HeV G-specific antibody), human IgG1/kappa (antibody, V domains shown)
VH: EVQVIQSGADVKKPGSSVKVSCKSSGGTFSKYAINWVRQAPGQGLEWMGGIIPILGIANYAQKFQGRVTITTDESTSTAYMELSSLRSEDTAVYYCARGWGREQLAPHPSQYYYYYYGMDVWGQGTTVTVSS
VL: EIVMTQSPGTLSLAPGERATLSCWASQSVRNNYLAWYQQKPGQAPRLVIYNGSTRATGIPDRFSGSGSGTDFTLTISRLDPEDFAVYYCQQYGNSRRVTFGGGTKVEIK
**Q.** What does the source list for B1?
**A.** Kd [1]: 153 nM; koff [1]: 0.0857 s⁻¹; Kd (Stalk G): 112 nM; koff (Stalk G): 0.0849 s⁻¹; Kd [2]: 86.2 nM; koff [2]: 0.0596 s⁻¹; Kd [3]: 17.8 nM; koff [3]: 0.0279 s⁻¹; Kd (Mono G): 402 nM; koff (Mono G): 0.131 s⁻¹
